± gives the uncertainty stated by the source.
Assay: self-splicing fitness, log relative to wild type (ln ratio); higher = more splicing; Tetrahymena group I intron in knt gene, E. coli kanamycin selection, DiMSum; sequences stand for … in CUCUCU…GGAGGGAAAAGUUAUCAGGCAUGCACCUGGUAGCUAGUCUUUAAACCAAUAGAUUGCAUCGGUUUAAAAGGCAAGACCGUCAAAUUGCGGGAAAGGGGUCAACAGCCGUUCAGUACCAAGUCUCAGGGGAAACUUUGAGAUGGCCUUGCAAAGGGUAUGGUAAUAAGCUGACGGACAUGGUCCUAACCACGCAGCCAAGUCCUAAGUCAACAGAUCUUCUGUUGAUAUGGAUGCAGUUCACAGACUAAAUGUCGGUCGGGGAAGAUGUAUUCUUCUCAUAAGAUAUAGUCGGACCUCUCCUUAAUGGGAGCUAGCGGAUGAAGUGAUGCAACACUGGAGCCGCUGGGAACUAAUUUGUAUGCGAAAGUAUAUUGAUUAGUUUUGGAGUACUCGUGGUCG
Method in brief: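 Colonies from six replicate transformations of E. coli BL21(DE3) were pooled and amplicon-sequenced on an Illumina HiSeq 2500. The library placed an intron with all eight P1ex-region nucleotides randomised inside the knt kanamycin-resistance gene on pET-22b(+), and cells grew overnight at 37°C or 30°C on LB agar with or without 25 μg/mL kanamycin (plus 100 μg/mL carbenicillin, 50 μM IPTG, 0.2% rhamnose). Fitness is the DiMSum error-weighted combination of wild-type-normalised replicate fold changes, kanamycin versus none.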

Sequence	self-splicing fitness (ln) (30 °C)	self-splicing fitness (ln) (37 °C)
AUGCAGCAAUAUUACGAUUA	-1.32 ± 0.1	-0.923 ± 0.1
AUGCAGCAAUAUUACGCACG	-1.46 ± 0.091	-0.13 ± 0.1
AUGCAGCAAUAUUACGCAGG	-3.71 ± 0.14	-2.13 ± 0.12
AUGCAGCAAUAUUACGCGAU	-3.67 ± 0.3	-1.92 ± 0.25
AUGCAGCAAUAUUACGCUAG	-3.93 ± 0.26	-2.49 ± 0.23
AUGCAGCAAUAUUACGGACA	-1.13 ± 0.15	-0.421 ± 0.13
AUGCAGCAAUAUUACGGACG	-1.57 ± 0.12	-0.811 ± 0.13
AUGCAGCAAUAUUACGGCAU	-3.9 ± 0.19	-2.61 ± 0.15
AUGCAGCAAUAUUACGGUAA	-0.979 ± 0.11	-0.791 ± 0.1
AUGCAGCAAUAUUACGGUUC	-2.28 ± 0.088	-1.83 ± 0.13
AUGCAGCAAUAUUACGGUUG	-4.33 ± 0.23	-2.21 ± 0.19
AUGCAGCAAUAUUACGGUUU	-0.723 ± 0.065	-0.427 ± 0.075
AUGCAGCAAUAUUACGUAUC	-4.58 ± 0.41	-2.76 ± 0.4
AUGCAGCAAUAUUACGUCAU	-3.12 ± 0.14	-2.26 ± 0.12
AUGCAGCAAUAUUACGUCCG	-2.16 ± 0.11	-1.27 ± 0.14
AUGCAGCAAUAUUACGUUCA	-1.16 ± 0.11	-0.74 ± 0.12
AUGCAGCAAUAUUACGUUGU	-4.08 ± 0.16	-3.03 ± 0.15
AUGGAGCAAUAUUACGAAGA		-1.17 ± 0.33
AUGGAGCAAUAUUACGAAGG	-3 ± 0.23	-2.29 ± 0.34
AUGGAGCAAUAUUACGAAUC	-3.53 ± 0.32	-1.97 ± 0.36
AUGGAGCAAUAUUACGCCGC	-1.29 ± 0.44	
AUGGAGCAAUAUUACGCGCA	-1.66 ± 0.28	-0.77 ± 0.23
AUGGAGCAAUAUUACGCUCU	-3.56 ± 0.49	-1.45 ± 0.41
AUGGAGCAAUAUUACGCUGG		-1.53 ± 0.2
AUGGAGCAAUAUUACGGAUA	-2.46 ± 0.17	-2.21 ± 0.28

Sequence	self-splicing fitness (ln) (30 °C)	self-splicing fitness (ln) (37 °C)
AUGGAGCAAUAUUACGGCGC	-2.45 ± 0.34	-0.677 ± 0.41
AUGGAGCAAUAUUACGGCGU	0.125 ± 0.14	0.224 ± 0.14
AUGGAGCAAUAUUACGGCUG	-2.48 ± 0.17	-1.84 ± 0.34
AUGGAGCAAUAUUACGGGAG	-2.75 ± 0.18	-2.82 ± 0.31
AUGGAGCAAUAUUACGGGGC	-3.13 ± 0.18	-2.14 ± 0.19
AUGGAGCAAUAUUACGGUGC	-2.99 ± 0.25	
AUGGAGCAAUAUUACGUCCG	-1.29 ± 0.12	-1.06 ± 0.13
AUGGAGCAAUAUUACGUCUC	-1.83 ± 0.28	-1.89 ± 0.37
AUGGAGCAAUAUUACGUGCC	-2.59 ± 0.25	-2.25 ± 0.45
AUGGAGCAAUAUUACGUGUU	-3.69 ± 0.15	-3.73 ± 0.24
AUGUAGCAAUAUUACGACAG	0.106 ± 0.081	0.358 ± 0.095
AUGUAGCAAUAUUACGACAU	-1.39 ± 0.014	-0.557 ± 0.033
AUGUAGCAAUAUUACGACGC	-0.952 ± 0.12	0.119 ± 0.082
AUGUAGCAAUAUUACGAUUC	-2.52 ± 0.31	-1.12 ± 0.33
AUGUAGCAAUAUUACGCCCC	-0.236 ± 0.22	-0.186 ± 0.3
AUGUAGCAAUAUUACGCUGA	-1.93 ± 0.15	-1.29 ± 0.18
AUGUAGCAAUAUUACGGAAU	-1.46 ± 0.082	-0.789 ± 0.11
AUGUAGCAAUAUUACGGAGA		-2.06 ± 0.38
AUGUAGCAAUAUUACGGAGC	-4.16 ± 0.16	-3.02 ± 0.15
AUGUAGCAAUAUUACGGGGG	-3.28 ± 0.27	-2.47 ± 0.37
AUGUAGCAAUAUUACGGGUA	-2.63 ± 0.24	-0.0625 ± 0.14
AUGUAGCAAUAUUACGGUAC	-3.47 ± 0.38	-1.89 ± 0.3
AUGUAGCAAUAUUACGGUUU	-0.83 ± 0.085	-0.694 ± 0.1
AUGUAGCAAUAUUACGUAAC	-2.96 ± 0.17	-1.54 ± 0.16
AUGUAGCAAUAUUACGUACG	-1.41 ± 0.1	-0.212 ± 0.13

Sequence	self-splicing fitness (ln) (30 °C)	self-splicing fitness (ln) (37 °C)
AUGUAGCAAUAUUACGUGAA	-2.3 ± 0.12	-1.22 ± 0.14
AUGUAGCAAUAUUACGUGCC	-1.65 ± 0.22	-0.677 ± 0.2
AUGUAGCAAUAUUACGUGGG		-3.13 ± 0.21
AUGUAGCAAUAUUACGUUCA	-0.72 ± 0.075	-0.276 ± 0.089
AUGUAGCAAUAUUACGUUCG	-0.997 ± 0.095	-0.356 ± 0.12
AUUAAGCAAUAUUACGAAGC	-3.3 ± 0.25	-2.52 ± 0.31
AUUAAGCAAUAUUACGAAUG	-2.82 ± 0.2	-0.206 ± 0.2
AUUAAGCAAUAUUACGACCC	-1.2 ± 0.35	
AUUAAGCAAUAUUACGAGGA	-3.01 ± 0.28	-0.871 ± 0.19
AUUAAGCAAUAUUACGAUCA	-1.58 ± 0.17	-0.409 ± 0.14
AUUAAGCAAUAUUACGAUGU	-0.608 ± 0.07	-0.0076 ± 0.084
AUUAAGCAAUAUUACGCCCG	-1.13 ± 0.22	0.13 ± 0.33
AUUAAGCAAUAUUACGCGAA	-1.32 ± 0.11	-0.882 ± 0.13
AUUAAGCAAUAUUACGCGGG	-2.61 ± 0.22	-1.72 ± 0.17
AUUAAGCAAUAUUACGCGUA	-1.27 ± 0.14	-0.834 ± 0.16
AUUAAGCAAUAUUACGCUUC	-3.05 ± 0.19	-2.03 ± 0.18
AUUAAGCAAUAUUACGCUUG	-1.87 ± 0.11	-0.856 ± 0.14
AUUAAGCAAUAUUACGGAGC	-2.62 ± 0.34	-2.15 ± 0.31
AUUAAGCAAUAUUACGGAUG	-2.15 ± 0.14	-2.02 ± 0.22
AUUAAGCAAUAUUACGGCCG	-0.768 ± 0.12	0.0891 ± 0.15
AUUAAGCAAUAUUACGGGAU	-2.07 ± 0.15	-0.652 ± 0.12
AUUAAGCAAUAUUACGGGCG	-0.789 ± 0.085	-0.228 ± 0.11
AUUAAGCAAUAUUACGGGGA	-3.62 ± 0.38	-1.41 ± 0.18
AUUAAGCAAUAUUACGGUUG	-3.08 ± 0.21	-2.56 ± 0.24
AUUAAGCAAUAUUACGUCAC		-1.54 ± 0.4

Sequence	self-splicing fitness (ln) (30 °C)	self-splicing fitness (ln) (37 °C)
AUUAAGCAAUAUUACGUCUA	-0.611 ± 0.093	0.119 ± 0.091
AUUAAGCAAUAUUACGUGUG	-1.9 ± 0.089	-1.18 ± 0.1
AUUAAGCAAUAUUACGUUCA	-0.728 ± 0.092	-0.399 ± 0.12
AUUAAGCAAUAUUACGUUCG	-0.91 ± 0.1	-0.85 ± 0.14
AUUAAGCAAUAUUACGUUCU	-0.566 ± 0.064	0.034 ± 0.086
AUUCAGCAAUAUUACGAAAA	0.178 ± 0.15	0.575 ± 0.17
AUUCAGCAAUAUUACGAAAG	-1.5 ± 0.11	-1.03 ± 0.13
AUUCAGCAAUAUUACGAACG	-0.206 ± 0.085	0.232 ± 0.13
AUUCAGCAAUAUUACGAGAC		-0.937 ± 0.18
AUUCAGCAAUAUUACGAGCA	-0.457 ± 0.16	-0.783 ± 0.2
AUUCAGCAAUAUUACGAGGG	-2.42 ± 0.26	-1.42 ± 0.34
AUUCAGCAAUAUUACGAGGU	-3.61 ± 0.17	-1.72 ± 0.14
AUUCAGCAAUAUUACGAGUU	-2.76 ± 0.16	-1.39 ± 0.13
AUUCAGCAAUAUUACGCAGC	-1.82 ± 0.38	-1.15 ± 0.26
AUUCAGCAAUAUUACGCCUG	-1.95 ± 0.12	-0.706 ± 0.19
AUUCAGCAAUAUUACGCUGG	-3.36 ± 0.17	-2.98 ± 0.26
AUUCAGCAAUAUUACGGAUA	-1.72 ± 0.17	-1.17 ± 0.14
AUUCAGCAAUAUUACGGAUC	-3.24 ± 0.11	-2.53 ± 0.18
AUUCAGCAAUAUUACGGCUC	-0.786 ± 0.081	-0.0849 ± 0.1
AUUCAGCAAUAUUACGGGUA	-1.89 ± 0.11	-1.31 ± 0.12
AUUCAGCAAUAUUACGGUAU	-0.934 ± 0.065	-0.155 ± 0.073
AUUCAGCAAUAUUACGGUCG	-0.857 ± 0.085	-0.679 ± 0.14
AUUCAGCAAUAUUACGGUUA	-0.544 ± 0.089	-0.305 ± 0.08
